Assay results published in article doi:10.1101/2021.03.19.436221.

Target: ALX301 (human)
Assay: SPR

Kd: 3.41 nM
B1: mouse CD47 (natural protein)
chain: QLLFSNVNSIEFTSCNETVVIPCIVRNVEAQSTEEMFVKWKLNKSYIFIYDGNKNSTTTDQNFTSAKISVSDLINGIASLKMDKRDAMVGNYTCEVTELSREGKTVIELKNRTVSWFSPNEKILIVIFPILAILLFWGKFGILTLKYKSSHTNKRIILLLVAGLVLTVIVVVGAILLIPGEKPVKNASGLGLIVISTGILILLQYNVFMTAFGMTSFTIAILITQVLGYVLALVGLCLCIMACEPVHGPLLISGLGIIALAELLGLVYMKFVASNQRTIQPPRNR
